From publication PMC4336627

Target: Flag-6xHis-TET2^CD (human)
Test: pull-down

Flag-WT1 (purified recombinant) (from UniProt P19544 1-449) (natural protein)
stoichiometry N: 1
